What was measured:
[1] = target: His-tagged OsTFIIAγ1, labelled with NT-647 (rice (Oryza sativa)); test: MST; […]; 50 mM Tris-HCl pH 7.8, 150 mM NaCl, 10 mM MgCl2, 0.05% Tween-20; 25°C; […]
[2] = target: His-tagged Xa5 (OsTFIIAγ5), labelled with NT-647 (rice (Oryza sativa)) (UniProt A2XZI2); test: as above

Substance | Kd [1] | Kd [2]
His-tagged AvrXa7 (natural protein) | < 1000 nM | < 1000 nM
His-tagged AvrXa27 (from UniProt A0A0K0GNW2 1-1136) (natural protein) | < 1000 nM | –
His-tagged PthXo1 (from UniProt B2SU53 1-1373) (natural protein) | < 1000 nM | –
